Reference: the supplement of paper PMC11246515
± gives the standard deviation of the averaged measurements.

Assay: total protein half-life in vivo (active degradation + dilution); higher = more stable protein
[1] = E. coli NCM3722 delta-clpP delta-lon delta-hslV, growth: N-lim chemostat, doubling time 6 h
[2] = wild type E. coli NCM3722, growth: P-lim chemostat, doubling time 6 h
[3] = E. coli NCM3722 delta-clpP, growth: N-lim chemostat, doubling time 6 h
[4] = E. coli NCM3722 delta-hslV, growth: N-lim chemostat, doubling time 6 h
[5] = E. coli NCM3722 delta-lon, growth: N-lim chemostat, doubling time 6 h
[6] = wild type E. coli NCM3722, growth: C-lim chemostat, doubling time 3 h
[7] = wild type E. coli NCM3722, growth: C-lim chemostat, doubling time 6 h
[8] = wild type E. coli NCM3722, growth: C-lim chemostat, doubling time 12 h
[9] = wild type E. coli NCM3722, growth: N-lim chemostat, doubling time 12 h
[10] = wild type E. coli NCM3722, growth: P-lim chemostat, doubling time 12 h
[11] = E. coli NCM3722 delta-smpB, growth: N-lim chemostat, doubling time 6 h
[12] = wild type E. coli NCM3722, growth: N-lim chemostat, doubling time 6 h

Sequence	total protein half-life in vivo [1] [h]	total protein half-life in vivo [2] [h]	total protein half-life in vivo [3] [h]	total protein half-life in vivo [4] [h]	total protein half-life in vivo [5] [h]	total protein half-life in vivo [6] [h]	total protein half-life in vivo [7] [h]	total protein half-life in vivo [8] [h]	total protein half-life in vivo [9] [h]	total protein half-life in vivo [10] [h]	total protein half-life in vivo [11] [h]	total protein half-life in vivo [12] [h]
MAQLKFNSILVVCTGNICRSPIGERLLRKRLPGVKVKSAGVHGLVKHPADATAADVAANHGVSLEGHAGRKLTAEMARNYDLILAMESEHIAQVTAIAPEVRGKTMLFGQWLEQKEIPDPYRKSQDAFEHVYGMLERASQEWAKRLSR [P0ACZ2]	4.76 ± 0.95	2.72										
MLHKKTLLFAALSAALWGGATQAADAAVVASLKPVGFIASAIADGVTETEVLLPDGASEHDYSLRPSDVKRLQNADLVVWVGPEMEAFMQKPVSKLPGAKQVTIAQLEDVKPLLMKSIHGDDDDHDHAEKSDEDHHHGDFNMHLWLSPEIARATAVAIHGKLVELMPQSRAKLDANLKDFEAQLASTETQVGNELAPLKGKGYFVFHDAYGYFEKQFGLTPLGHFTVNPEIQPGAQRLHEIRTQLVEQKATCVFAEPQFRPAVVESVARGTSVRMGTLDPLGTNIKLGKTSYSEFLSQLANQYASCLKGD	3.68 ± 0.41	5.24 ± 0.2	4.85 ± 0.4	5.99 ± 0.29	7.17 ± 0.96	2.86 ± 0.12	5.54 ± 0.29	9.55 ± 1.5	13.6 ± 1.4	11.4 ± 2.3		
MNQRNASMTVIGAGSYGTALAITLARNGHEVVLWGHDPEHIATLERDRCNAAFLPDVPFPDTLHLESDLATALAASRNILVVVPSHVFGEVLRQIKPLMRPDARLVWATKGLEAETGRLLQDVAREALGDQIPLAVISGPTFAKELAAGLPTAISLASTDQTFADDLQQLLHCGKSFRVYSNPDFIGVQLGGAVKNVIAIGAGMSDGIGFGANARTALITRGLAEMSRLGAALGADPATFMGMAGLGDLVLTCTDNQSRNRRFGMMLGQGMDVQSAQEKIGQVVEGYRNTKEVRELAHRFGVEMPITEEIYQVLYCGKNAREAALTLLGRARKDERSSH [P0A6S7]	5.183 ± 0.013	5.73 ± 0.15	5.35 ± 0.8	4.8 ± 0.097	4.88 ± 0.27	3.3022 ± 0.00023	5.8 ± 0.063	10.8 ± 1.8	8.16	12.7 ± 2.1	4.73 ± 0.34	4.99 ± 0.28
MPLPDFHVSEPFTLGIELEMQVVNPPGYDLSQDSSMLIDAVKNKITAGEVKHDITESMLELATDVCRDINQAAGQFSAMQKVVLQAATDHHLEICGGGTHPFQKWQRQEVCDNERYQRTLENFGYLIQQATVFGQHVHVGCASGDDAIYLLHGLSRFVPHFIALSAASPYMQGTDTRFASSRPNIFSAFPDNGPMPWVSNWQQFEALFRCLSYTTMIDSIKDLHWDIRPSPHFGTVEVRVMDTPLTLSHAVNMAGLIQATAHWLLTERPFKHQEKDYLLYKFNRFQACRYGLEGVITDPHTGDRRPLTEDTLRLLEKIAPSAHKIGASSAIEALHRQVVSGLNEAQLMRDFVADGGSLIGLVKKHCEIWAGD	4.72 ± 0.45	6.17 ± 1	4.3 ± 0.47	4.35 ± 0.24	4.85 ± 0.29			9.5 ± 0.29	9.74	11.6 ± 0.85	4.73	4.59
MERYESLFAQLKERKEGAFVPFVTLGDPGIEQSLKIIDTLIEAGADALELGIPFSDPLADGPTIQNATLRAFAAGVTPAQCFEMLALIRQKHPTIPIGLLMYANLVFNKGIDEFYAQCEKVGVDSVLVADVPVEESAPFRQAALRHNVAPIFICPPNADDDLLRQIASYGRGYTYLLSRAGVTGAENRAALPLNHLVAKLKEYNAAPPLQGFGISAPDQVKAAIDAGAAGAISGSAIVKIIEQHINEPEKMLAALKVFVQPMKAATRS [P0A877]	3.93 ± 0.57	5.39 ± 0.16	3.89 ± 0.84	3.44 ± 0.066	4.07 ± 0.48	3.084 ± 0.021	5.81 ± 0.23	8.972 ± 0.077	5.06 ± 0.87	12 ± 0.5	3.69 ± 0.17	3.61 ± 0.21
MSSKEQKTPEGQAPEEIIMDQHEEIEAVEPEASAEQVDPRDEKVANLEAQLAEAQTRERDGILRVKAEMENLRRRTELDIEKAHKFALEKFINELLPVIDSLDRALEVADKANPDMSAMVEGIELTLKSMLDVVRKFGVEVIAETNVPLDPNVHQAIAMVESDDVAPGNVLGIMQKGYTLNGRTIRAAMVTVAKAKA	6.35 ± 0.23	5.26 ± 0.24	6.61 ± 1.3	5.31 ± 0.46	5.19 ± 0.26	3.024 ± 0.0063	5.43 ± 0.17	9.26 ± 0.18	8.74 ± 0.79	10.7 ± 0.15	4.79 ± 0.18	5.66 ± 0.14
